Reference: patent US20230357354A1, “CD38-BINDING CD31 PEPTIDES AND USES THEREOF” (ENCEFA, priority 2020, published 2023)

Test system: dopaminergic (TH^+) neurons in midbrain cultures
Assay: MPP+ intoxication model: DA (TH+) cell survival in midbrain cultures
Type: cell-based, Wistar rat
Protocol: Animals were treated in accordance with the Guide for the Care and Use of Laboratory Animals (National Research Council, 1996), European Directive 86/609, and the guidelines of the local institutional animal care and use committee. Cultures were prepared from the ventral mesencephalon of gestational age 15.5 Wistar rat embryos (Janvier Breeding Center, Le Genest St Isle, France). Dissociated cells in suspension obtained by mechanical trituration of midbrain tissue pieces were seeded at a density of 1.2-1.5×10^5 cells/cm^2 onto tissue culture supports precoated with 1 mg/mL polyethylenimine diluted in borate buffer pH 8.3 as described (Michel et al., 1997. J Neurochem. 69(4):1499-507). The cultures were then maintained in N5 medium supplemented with 5 mM glucose, 5 % horse serum, and 0.5 % fetal calf serum, except for the first 3 DIV, when the concentration of fetal calf serum was 2.5% to favor initial maturation of the cultures (Guerreiro et al., 2008. Mol Pharmacol. 74(4):980-9). They were fed daily by replacing 70% of the medium. Routinely, mesencephalic cultures were established on Nunc 24-well culture plates (Thermofischer Scientific, Rochester, NY). Note that these cultures contain tyrosine hydroxylase (TH)^+ neurons that were exclusively dopaminergic (Traver et al., 2006. Mol Pharmacol. 70(1):30-40). […]

B1: murine sCD31: murine soluble CD31 (extracellular domain of CD31) having SEQ ID NO: 18, used in Example 1 (protein, listed as Mus musculus)
chain: MLLALGLTLVLYASLQAEENSFTINSIHMESLPSWEVMNGQQLTLECLVDISTTSKSRSQHRVLFYKDDAMVYNVTSREHTESYVIPQARVFHSGKYKCTVMLNNKEKTTIEYEVKVHGVSKPKVTLDKKEVTEGGVVTVNCSLQEEKPPIFFKIEKLEVGTKFVKRRIDKTSNENFVLMEFPIEAQDHVLVFRCQAGILSGFKLQESEPIRSEYVTVQESFSTPKFEIKPPGMIIEGDQLHIRCIVQVTHLVQEFTEIIIQKDKAIVATSKQSSEAVYSVMAMVEYSGHYTCKVESNRISKASSIMVNITELFPKPKLEFSSSRLDQGELLDLSCSVSGTPVANFTIQKEETVLSQYQNFSKIAEESDSGEYSCTAGIGKVVKRSGLVPIQVCEMLSKPSIFHDAKSEIIKGHAIGISCQSENGTAPITYHLMKAKSDFQTLEVTSNDPATFTDKPTRDMEYQCRADNCHSHPAVFSEILRVRVIAPVDEVVISILSSNEVQSGSEMVLRCSVKEGTSPITFQFYKEKEDRPFHQAVVNDTQAFWHNKQASKKQEGQYYCTASNRASSMRTSPRSSTLAVRVFL
modifications: Murine sCD31
EC50 of prevention of MPP^+-induced DA cell loss (3 µM MPP^+ between 5 and 7 DIV): 0.036 mg/L | neuroprotective effect against MPP^+-induced DA cell death (MPP^+ 3 µM between 5 and 7 DIV, HB7 1 µg/mL): neuroprotective
